Like-named read-outs stand apart in the source and are kept apart here.
How the values were obtained:
[1] = molecular target: T1, SARS-CoV-2 spike D614, on pseudovirus (SARS-CoV-2, UniProt P0DTC2 14-1273); assay: cell-based or functional assay
SARS-CoV S1 = SARS-CoV S1 (SARS-CoV, UniProt P59594 14-667); assay: Octet (BLI) specificity, Fig. 12
MERS-CoV RBD = molecular target: T2, MERS-CoV RBD (MERS-CoV, UniProt K9N5Q8 367-606); assay: Octet (BLI) specificity, Fig. 12
T2 sequence: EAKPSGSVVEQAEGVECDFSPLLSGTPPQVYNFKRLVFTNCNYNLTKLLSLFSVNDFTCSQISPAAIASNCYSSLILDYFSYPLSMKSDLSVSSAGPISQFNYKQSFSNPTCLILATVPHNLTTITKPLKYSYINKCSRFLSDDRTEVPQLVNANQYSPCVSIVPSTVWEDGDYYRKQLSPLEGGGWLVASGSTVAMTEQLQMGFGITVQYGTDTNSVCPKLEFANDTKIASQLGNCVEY

[2] = molecular target: T1, SARS-CoV-2 spike D614, on pseudovirus; assay: cell-based or functional assay; remark: listed apart in the source
[3] = molecular target: T1, SARS-CoV-2 spike D614, on pseudovirus; assay: cell-based or functional assay; remark: listed apart in the source

B1: No. 139 항체 (Full IgG) (antibody, V domains shown)
VH: QITLKESGPTLVKPTQTLTLTCSFSGFSLSTSGVGVGWIRQPPGKALEWLALIDWDDNKYHTTSLKTRLTISKDTSKNQVVLTMTNMDPVDTATYYCARIPGFLRYRNRYYYYGMDVWGQGTTVTVSS
VL: ELVLTQPPSVSAAPGQKVTISCSGSSSNIGNNYVSWYQQLPGTAPKLLIYDNNKRPSGIPDRFSGSKSGTSATLGITGLQTGDEADYYCGTWDSSLSAGVFGGGTELTVL
notes: also called CT-P59; Regdanvimab
[1]
  pseudovirus 중화능 IC50: 0.378 ng/mL
SARS-CoV S1
  binding result: no binding
MERS-CoV RBD
  binding result: no binding
[2]
  pseudovirus 중화능 IC50: 0.535 ng/mL
[3]
  pseudovirus 중화능 IC50: 0.35 ng/mL

Reference: patent KR20220012826A (dated 2022)
